Data: IntAct's records for PubMed 24485452

B1: Golgi phosphoprotein 3 (Homo sapiens), Q9H4A6 (parent)
chain: MTSLTQRSSGLVQRRTEASRNAADKERAAGGGAGSSEDDAQSRRDEQDDDDKGDSKETRLTLMEEVLLLGLKDREGYTSFWNDCISSGLRGCMLIELALRGRLQLEACGMRRKSLLTRKVICKSDAPTGDVLLDEALKHVKETQPPETVQNWIELLSGETWNPLKLHYQLRNVRERLAKNLVEKGVLTTEKQNFLLFDMTTHPLTNNNIKQRLIKKVQEAVLDKWVNDPHRMDRRLLALIYLAHASDVLENAFAPLLDEQYDLATKRVRQLLDLDPEVECLKANTNEVLWAVVAAFTK

Variants of: B1
Conditions: with my18a_human MYO18A

Variant | effect of a mutation on the interaction
T143D;T148D | increasing interaction strength
T143E;T148E | increasing interaction strength
